Broadly, the EC50 is the concentration that produces a half-maximal response.

Common to all, as to assay: ELISA
On the technique in general: In an ELISA, binding on a coated surface is turned into a signal by an enzyme label.

In one test the target is T1, human NPR1 W74R + ANP (human).
T1 chain 1: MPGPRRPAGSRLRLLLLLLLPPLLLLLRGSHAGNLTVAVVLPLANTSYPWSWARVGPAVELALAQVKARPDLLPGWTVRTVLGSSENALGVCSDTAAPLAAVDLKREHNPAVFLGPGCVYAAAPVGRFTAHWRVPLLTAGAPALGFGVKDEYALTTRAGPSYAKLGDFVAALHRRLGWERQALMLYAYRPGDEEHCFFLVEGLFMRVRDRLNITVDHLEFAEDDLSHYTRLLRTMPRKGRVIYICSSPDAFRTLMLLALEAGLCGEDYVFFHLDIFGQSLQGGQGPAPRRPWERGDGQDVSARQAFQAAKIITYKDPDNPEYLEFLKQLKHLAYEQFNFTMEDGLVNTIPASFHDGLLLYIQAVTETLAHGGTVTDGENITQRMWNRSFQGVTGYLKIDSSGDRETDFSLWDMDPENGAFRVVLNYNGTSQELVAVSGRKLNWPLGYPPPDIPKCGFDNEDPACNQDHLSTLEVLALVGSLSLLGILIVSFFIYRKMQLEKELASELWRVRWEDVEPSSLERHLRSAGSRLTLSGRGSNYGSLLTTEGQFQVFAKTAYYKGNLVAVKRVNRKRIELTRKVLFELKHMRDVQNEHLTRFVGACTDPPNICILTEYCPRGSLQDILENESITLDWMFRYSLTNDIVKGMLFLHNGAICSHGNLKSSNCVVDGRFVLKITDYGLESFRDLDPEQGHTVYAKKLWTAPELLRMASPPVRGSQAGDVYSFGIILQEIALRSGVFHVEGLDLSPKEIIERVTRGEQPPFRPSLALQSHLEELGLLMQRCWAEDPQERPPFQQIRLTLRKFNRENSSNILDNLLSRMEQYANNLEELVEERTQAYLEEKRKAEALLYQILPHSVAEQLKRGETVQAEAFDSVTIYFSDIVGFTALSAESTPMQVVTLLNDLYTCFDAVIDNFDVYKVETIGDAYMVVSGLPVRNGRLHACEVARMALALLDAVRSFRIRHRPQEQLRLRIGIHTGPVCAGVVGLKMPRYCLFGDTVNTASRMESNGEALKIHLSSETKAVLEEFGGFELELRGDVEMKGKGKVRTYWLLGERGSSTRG
T1 chain 2: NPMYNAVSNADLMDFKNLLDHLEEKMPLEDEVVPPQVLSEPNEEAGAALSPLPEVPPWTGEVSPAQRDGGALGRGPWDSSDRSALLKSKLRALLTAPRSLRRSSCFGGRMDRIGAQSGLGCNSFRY

The target of another test is T2, human NPR1 W74R (human).
T2 chain: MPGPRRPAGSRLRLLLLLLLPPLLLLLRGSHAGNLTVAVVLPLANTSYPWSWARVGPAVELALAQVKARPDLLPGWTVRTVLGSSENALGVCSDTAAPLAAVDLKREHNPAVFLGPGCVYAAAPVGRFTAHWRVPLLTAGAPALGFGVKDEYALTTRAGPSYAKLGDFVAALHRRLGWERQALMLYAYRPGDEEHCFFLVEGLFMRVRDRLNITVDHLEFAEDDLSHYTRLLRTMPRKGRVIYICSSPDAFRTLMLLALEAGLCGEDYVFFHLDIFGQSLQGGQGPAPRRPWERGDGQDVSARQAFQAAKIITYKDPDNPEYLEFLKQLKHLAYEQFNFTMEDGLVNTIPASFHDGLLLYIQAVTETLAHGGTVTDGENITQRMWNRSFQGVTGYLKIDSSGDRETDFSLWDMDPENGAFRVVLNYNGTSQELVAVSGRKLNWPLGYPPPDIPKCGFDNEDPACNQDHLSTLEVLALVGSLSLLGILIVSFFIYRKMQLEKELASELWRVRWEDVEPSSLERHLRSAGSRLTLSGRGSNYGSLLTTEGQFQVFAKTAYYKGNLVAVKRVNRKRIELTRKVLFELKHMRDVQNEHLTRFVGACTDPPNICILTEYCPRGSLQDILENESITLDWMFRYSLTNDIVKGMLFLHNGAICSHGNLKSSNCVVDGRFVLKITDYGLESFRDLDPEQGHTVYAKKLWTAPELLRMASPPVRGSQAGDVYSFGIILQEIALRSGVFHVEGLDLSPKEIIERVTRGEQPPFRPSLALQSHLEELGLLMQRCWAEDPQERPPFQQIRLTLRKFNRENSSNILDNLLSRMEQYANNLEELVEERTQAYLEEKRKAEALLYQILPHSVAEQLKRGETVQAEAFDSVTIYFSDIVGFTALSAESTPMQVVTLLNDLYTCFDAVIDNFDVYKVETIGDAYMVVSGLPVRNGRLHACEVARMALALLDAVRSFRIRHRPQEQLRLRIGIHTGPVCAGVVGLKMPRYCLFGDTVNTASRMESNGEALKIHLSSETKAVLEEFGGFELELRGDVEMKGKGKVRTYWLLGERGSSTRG

The next test concerns the target T3, rat NPR1-ANP complex (rat).
T3 chain 1: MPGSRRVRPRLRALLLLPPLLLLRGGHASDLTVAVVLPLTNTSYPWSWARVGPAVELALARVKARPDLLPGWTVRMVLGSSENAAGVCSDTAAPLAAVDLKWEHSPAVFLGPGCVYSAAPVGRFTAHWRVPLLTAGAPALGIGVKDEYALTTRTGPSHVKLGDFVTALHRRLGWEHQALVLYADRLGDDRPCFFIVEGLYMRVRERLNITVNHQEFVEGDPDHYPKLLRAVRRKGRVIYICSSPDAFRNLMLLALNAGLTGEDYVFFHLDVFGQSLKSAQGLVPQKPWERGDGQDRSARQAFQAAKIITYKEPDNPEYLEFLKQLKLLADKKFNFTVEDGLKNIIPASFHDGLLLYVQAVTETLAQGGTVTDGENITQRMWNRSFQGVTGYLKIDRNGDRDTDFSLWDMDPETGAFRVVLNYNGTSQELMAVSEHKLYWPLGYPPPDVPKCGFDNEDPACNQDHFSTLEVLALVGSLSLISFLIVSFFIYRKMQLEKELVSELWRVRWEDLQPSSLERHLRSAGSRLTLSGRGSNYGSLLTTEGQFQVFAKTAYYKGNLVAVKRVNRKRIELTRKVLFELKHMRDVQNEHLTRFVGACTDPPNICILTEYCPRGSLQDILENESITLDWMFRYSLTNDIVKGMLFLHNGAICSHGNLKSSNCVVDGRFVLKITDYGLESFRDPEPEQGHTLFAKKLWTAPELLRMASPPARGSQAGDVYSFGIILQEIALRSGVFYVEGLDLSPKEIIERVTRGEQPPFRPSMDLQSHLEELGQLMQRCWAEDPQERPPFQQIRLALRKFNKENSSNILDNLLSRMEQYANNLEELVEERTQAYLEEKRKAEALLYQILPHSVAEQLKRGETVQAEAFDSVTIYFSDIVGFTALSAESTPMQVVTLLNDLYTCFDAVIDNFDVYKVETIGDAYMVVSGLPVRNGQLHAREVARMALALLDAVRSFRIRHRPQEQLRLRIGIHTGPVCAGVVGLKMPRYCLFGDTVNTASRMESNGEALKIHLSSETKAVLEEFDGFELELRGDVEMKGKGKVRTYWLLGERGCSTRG
T3 chain 2: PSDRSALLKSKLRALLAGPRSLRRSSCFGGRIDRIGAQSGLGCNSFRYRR

The target in another test is T4, human NPR1 (human).
T4 chain: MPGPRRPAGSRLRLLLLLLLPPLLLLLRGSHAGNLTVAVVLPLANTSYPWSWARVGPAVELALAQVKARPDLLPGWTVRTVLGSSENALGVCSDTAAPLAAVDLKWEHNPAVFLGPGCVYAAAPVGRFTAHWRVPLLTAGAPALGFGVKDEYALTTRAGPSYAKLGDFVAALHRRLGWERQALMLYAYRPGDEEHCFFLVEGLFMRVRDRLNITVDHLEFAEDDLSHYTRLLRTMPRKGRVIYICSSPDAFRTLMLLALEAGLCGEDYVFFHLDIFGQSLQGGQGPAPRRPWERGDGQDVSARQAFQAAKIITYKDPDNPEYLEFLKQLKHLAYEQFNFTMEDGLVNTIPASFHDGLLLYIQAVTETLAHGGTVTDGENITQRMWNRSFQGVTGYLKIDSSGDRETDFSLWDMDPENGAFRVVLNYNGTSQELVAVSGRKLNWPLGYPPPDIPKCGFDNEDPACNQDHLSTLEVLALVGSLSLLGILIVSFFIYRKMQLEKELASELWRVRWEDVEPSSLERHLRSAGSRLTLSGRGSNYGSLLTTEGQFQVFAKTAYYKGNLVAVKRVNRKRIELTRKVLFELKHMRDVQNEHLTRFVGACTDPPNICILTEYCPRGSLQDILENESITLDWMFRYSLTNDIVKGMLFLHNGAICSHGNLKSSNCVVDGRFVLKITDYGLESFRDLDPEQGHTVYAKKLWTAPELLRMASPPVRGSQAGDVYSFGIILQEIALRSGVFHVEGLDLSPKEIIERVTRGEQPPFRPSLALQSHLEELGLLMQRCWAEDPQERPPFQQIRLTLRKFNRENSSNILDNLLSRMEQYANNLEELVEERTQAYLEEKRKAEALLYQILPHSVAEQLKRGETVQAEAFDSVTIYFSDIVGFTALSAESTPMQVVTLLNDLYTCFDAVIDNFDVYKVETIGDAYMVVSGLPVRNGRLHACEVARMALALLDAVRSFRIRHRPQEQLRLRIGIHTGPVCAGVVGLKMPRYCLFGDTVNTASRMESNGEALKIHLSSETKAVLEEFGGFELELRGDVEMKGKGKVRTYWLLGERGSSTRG

B1: WW06 IgG (antibody, V domains shown)
VH: QVQLVQSGAEVKKPGESLKISCKGSGYSFTSYWIAWVRQMPGKGLEWMGRIDPDNSYTRYSPSFQGQVTISADKSISTAYLQWSSLKASDTAMYYCARWLSPGYALGEQPAGMDHWGQGTLVTVSS
VL: DIVLTQPPSVSGAPGQRVTISCTGSSSNIGAGYAVHWYQQLPGTAPKLLIYSNNKRPSGVPDRFSGSKSGTSASLAITGLQAEDEADYYCQSYDLQKSSRVFGGGTKLTVL
With B1, the results for the EC50 with human NPR1 W74R + ANP, in the test with human NPR1 W74R and with human NPR1 were 0.8 nM, 0.9 nM and 2.5 nM, respectively. Moreover, the binding result with rat NPR1-ANP complex is “no binding”.

The values above are taken from patent US20230365674 (published 2023).
